US20150344540A1, “NOVEL GLP-1 RECEPTOR AGONISTS WITH CHOLESTEROL EFFLUX ACTIVITY” (NOVO NORDISK A/S, priority 2012, published 2015)
Where no end group is shown, it is not given here. [ ]: non-standard residue; d: D form. Aib = CC(C)(N)C(=O)O

B1: [Aib8,Val25,Glu34,Lys35,Aib36,Lys37]-GLP-1-(7-37)-peptidyl-Glu-Phe-Leu amide (peptide)
peptide: H[Aib]EGTFTSDVSSYLEGQAVKEFIAWLVEK[Aib]KEFL-NH2
modifications: N-terminus assumed
SMILES: CC[C@H](C)[C@H](NC(=O)[C@H](Cc1ccccc1)NC(=O)[C@H](CCC(=O)O)NC(=O)[C@H](CCCCN)NC(=O)[C@@H](NC(=O)[C@H](C)NC(=O)[C@H](CCC(N)=O)NC(=O)CNC(=O)[C@H](CCC(=O)O)NC(=O)[C@H](CC(C)C)NC(=O)[C@H](Cc1ccc(O)cc1)NC(=O)[C@H](CO)NC(=O)[C@H](CO)NC(=O)[C@@H](NC(=O)[C@H](CC(=O)O)NC(=O)[C@H](CO)NC(=O)[C@@H](NC(=O)[C@H](Cc1ccccc1)NC(=O)[C@@H](NC(=O)CNC(=O)[C@H](CCC(=O)O)NC(=O)C(C)(C)NC(=O)[C@@H](N)Cc1c[nH]cn1)[C@@H](C)O)[C@@H](C)O)C(C)C)C(C)C)C(=O)N[C@@H](C)C(=O)N[C@@H](Cc1c[nH]c2ccccc12)C(=O)N[C@@H](CC(C)C)C(=O)N[C@H](C(=O)N[C@@H](CCC(=O)O)C(=O)N[C@@H](CCCCN)C(=O)NC(C)(C)C(=O)N[C@@H](CCCCN)C(=O)N[C@@H](CCC(=O)O)C(=O)N[C@@H](Cc1ccccc1)C(=O)N[C@@H](CC(C)C)C(N)=O)C(C)C
B2: [Aib8,Glu22,Glu23,Val25,Glu34,Lys35,Val36,Lys37]-GLP-1-(7-37)-peptidyl-Glu-Leu-Leu amide (peptide)
peptide: H[Aib]EGTFTSDVSSYLEEEAVKEFIAWLVEKVKELL-NH2
modifications: N-terminus assumed
SMILES: CC[C@H](C)[C@H](NC(=O)[C@H](Cc1ccccc1)NC(=O)[C@H](CCC(=O)O)NC(=O)[C@H](CCCCN)NC(=O)[C@@H](NC(=O)[C@H](C)NC(=O)[C@H](CCC(=O)O)NC(=O)[C@H](CCC(=O)O)NC(=O)[C@H](CCC(=O)O)NC(=O)[C@H](CC(C)C)NC(=O)[C@H](Cc1ccc(O)cc1)NC(=O)[C@H](CO)NC(=O)[C@H](CO)NC(=O)[C@@H](NC(=O)[C@H](CC(=O)O)NC(=O)[C@H](CO)NC(=O)[C@@H](NC(=O)[C@H](Cc1ccccc1)NC(=O)[C@@H](NC(=O)CNC(=O)[C@H](CCC(=O)O)NC(=O)C(C)(C)NC(=O)[C@@H](N)Cc1c[nH]cn1)[C@@H](C)O)[C@@H](C)O)C(C)C)C(C)C)C(=O)N[C@@H](C)C(=O)N[C@@H](Cc1c[nH]c2ccccc12)C(=O)N[C@@H](CC(C)C)C(=O)N[C@H](C(=O)N[C@@H](CCC(=O)O)C(=O)N[C@@H](CCCCN)C(=O)N[C@H](C(=O)N[C@@H](CCCCN)C(=O)N[C@@H](CCC(=O)O)C(=O)N[C@@H](CC(C)C)C(=O)N[C@@H](CC(C)C)C(N)=O)C(C)C)C(C)C
B3: [Glu34,Lys35,Val36,Lys37]-GLP-1-(7-37)-peptidyl-Glu-Phe-Leu amide (peptide)
peptide: HAEGTFTSDVSSYLEGQAAKEFIAWLVEKVKEFL-NH2
B4: [Glu34,Lys35,Val36,Lys37]-GLP-1-(7-37)-peptidyl-Glu-Phe-Leu-Glu amide (peptide)
peptide: HAEGTFTSDVSSYLEGQAAKEFIAWLVEKVKEFLE-NH2
B5: [Aib8,Glu23,Lys24,Val25,Glu30,His31,Glu34,Lys35,Phe36,Lys37]-GLP-1-(7-37)-peptidyl-Glu-Phe-Phe amide (peptide)
peptide: H[Aib]EGTFTSDVSSYLEGEKVKEFIEHLVEKFKEFF-NH2
modifications: N-terminus assumed
SMILES: CC[C@H](C)[C@H](NC(=O)[C@H](Cc1ccccc1)NC(=O)[C@H](CCC(=O)O)NC(=O)[C@H](CCCCN)NC(=O)[C@@H](NC(=O)[C@H](CCCCN)NC(=O)[C@H](CCC(=O)O)NC(=O)CNC(=O)[C@H](CCC(=O)O)NC(=O)[C@H](CC(C)C)NC(=O)[C@H](Cc1ccc(O)cc1)NC(=O)[C@H](CO)NC(=O)[C@H](CO)NC(=O)[C@@H](NC(=O)[C@H](CC(=O)O)NC(=O)[C@H](CO)NC(=O)[C@@H](NC(=O)[C@H](Cc1ccccc1)NC(=O)[C@@H](NC(=O)CNC(=O)[C@H](CCC(=O)O)NC(=O)C(C)(C)NC(=O)[C@@H](N)Cc1c[nH]cn1)[C@@H](C)O)[C@@H](C)O)C(C)C)C(C)C)C(=O)N[C@@H](CCC(=O)O)C(=O)N[C@@H](Cc1c[nH]cn1)C(=O)N[C@@H](CC(C)C)C(=O)N[C@H](C(=O)N[C@@H](CCC(=O)O)C(=O)N[C@@H](CCCCN)C(=O)N[C@@H](Cc1ccccc1)C(=O)N[C@@H](CCCCN)C(=O)N[C@@H](CCC(=O)O)C(=O)N[C@@H](Cc1ccccc1)C(=O)N[C@@H](Cc1ccccc1)C(N)=O)C(C)C
B6: [Aib8,Glu23,Glu34,Lys35,Aib36,Lys37]-GLP-1-(7-37)-peptidyl-Glu-Phe-Leu amide (peptide)
peptide: H[Aib]EGTFTSDVSSYLEGEAAKEFIAWLVEK[Aib]KEFL-NH2
modifications: N-terminus assumed
SMILES: CC[C@H](C)[C@H](NC(=O)[C@H](Cc1ccccc1)NC(=O)[C@H](CCC(=O)O)NC(=O)[C@H](CCCCN)NC(=O)[C@H](C)NC(=O)[C@H](C)NC(=O)[C@H](CCC(=O)O)NC(=O)CNC(=O)[C@H](CCC(=O)O)NC(=O)[C@H](CC(C)C)NC(=O)[C@H](Cc1ccc(O)cc1)NC(=O)[C@H](CO)NC(=O)[C@H](CO)NC(=O)[C@@H](NC(=O)[C@H](CC(=O)O)NC(=O)[C@H](CO)NC(=O)[C@@H](NC(=O)[C@H](Cc1ccccc1)NC(=O)[C@@H](NC(=O)CNC(=O)[C@H](CCC(=O)O)NC(=O)C(C)(C)NC(=O)[C@@H](N)Cc1c[nH]cn1)[C@@H](C)O)[C@@H](C)O)C(C)C)C(=O)N[C@@H](C)C(=O)N[C@@H](Cc1c[nH]c2ccccc12)C(=O)N[C@@H](CC(C)C)C(=O)N[C@H](C(=O)N[C@@H](CCC(=O)O)C(=O)N[C@@H](CCCCN)C(=O)NC(C)(C)C(=O)N[C@@H](CCCCN)C(=O)N[C@@H](CCC(=O)O)C(=O)N[C@@H](Cc1ccccc1)C(=O)N[C@@H](CC(C)C)C(N)=O)C(C)C
B7: [Lys24,Glu34,Val36,Lys37]-GLP-1-(7-37)-peptidyl-Glu-Phe-Leu amide (peptide)
peptide: HAEGTFTSDVSSYLEGQKAKEFIAWLVEGVKEFL-NH2
B8: [Gly8,Glu22,Glu23,Val25,Glu34,Lys35,Val36,Lys37]-GLP-1-(7-37)-peptidyl-Glu-Lys-Leu amide (peptide)
peptide: HGEGTFTSDVSSYLEEEAVKEFIAWLVEKVKEKL-NH2
B9: [Aib8,Val25,Gln27,Gln34,Lys35,Aib36,Lys37]-GLP-1-(7-37)-peptidyl-Gln-Phe-Leu amide (peptide)
peptide: H[Aib]EGTFTSDVSSYLEGQAVKQFIAWLVQK[Aib]KQFL-NH2
modifications: N-terminus assumed
SMILES: CC[C@H](C)[C@H](NC(=O)[C@H](Cc1ccccc1)NC(=O)[C@H](CCC(N)=O)NC(=O)[C@H](CCCCN)NC(=O)[C@@H](NC(=O)[C@H](C)NC(=O)[C@H](CCC(N)=O)NC(=O)CNC(=O)[C@H](CCC(=O)O)NC(=O)[C@H](CC(C)C)NC(=O)[C@H](Cc1ccc(O)cc1)NC(=O)[C@H](CO)NC(=O)[C@H](CO)NC(=O)[C@@H](NC(=O)[C@H](CC(=O)O)NC(=O)[C@H](CO)NC(=O)[C@@H](NC(=O)[C@H](Cc1ccccc1)NC(=O)[C@@H](NC(=O)CNC(=O)[C@H](CCC(=O)O)NC(=O)C(C)(C)NC(=O)[C@@H](N)Cc1c[nH]cn1)[C@@H](C)O)[C@@H](C)O)C(C)C)C(C)C)C(=O)N[C@@H](C)C(=O)N[C@@H](Cc1c[nH]c2ccccc12)C(=O)N[C@@H](CC(C)C)C(=O)N[C@H](C(=O)N[C@@H](CCC(N)=O)C(=O)N[C@@H](CCCCN)C(=O)NC(C)(C)C(=O)N[C@@H](CCCCN)C(=O)N[C@@H](CCC(N)=O)C(=O)N[C@@H](Cc1ccccc1)C(=O)N[C@@H](CC(C)C)C(N)=O)C(C)C
B10: [Aib8,Pro22,Glu23,Val25,Glu34,Lys35,Aib36,Lys37]-GLP-1-(7-37)-peptidyl-Glu-Phe-Leu amide (peptide)
peptide: H[Aib]EGTFTSDVSSYLEPEAVKEFIAWLVEK[Aib]KEFL-NH2
modifications: N-terminus assumed
SMILES: CC[C@H](C)[C@H](NC(=O)[C@H](Cc1ccccc1)NC(=O)[C@H](CCC(=O)O)NC(=O)[C@H](CCCCN)NC(=O)[C@@H](NC(=O)[C@H](C)NC(=O)[C@H](CCC(=O)O)NC(=O)[C@@H]1CCCN1C(=O)[C@H](CCC(=O)O)NC(=O)[C@H](CC(C)C)NC(=O)[C@H](Cc1ccc(O)cc1)NC(=O)[C@H](CO)NC(=O)[C@H](CO)NC(=O)[C@@H](NC(=O)[C@H](CC(=O)O)NC(=O)[C@H](CO)NC(=O)[C@@H](NC(=O)[C@H](Cc1ccccc1)NC(=O)[C@@H](NC(=O)CNC(=O)[C@H](CCC(=O)O)NC(=O)C(C)(C)NC(=O)[C@@H](N)Cc1c[nH]cn1)[C@@H](C)O)[C@@H](C)O)C(C)C)C(C)C)C(=O)N[C@@H](C)C(=O)N[C@@H](Cc1c[nH]c2ccccc12)C(=O)N[C@@H](CC(C)C)C(=O)N[C@H](C(=O)N[C@@H](CCC(=O)O)C(=O)N[C@@H](CCCCN)C(=O)NC(C)(C)C(=O)N[C@@H](CCCCN)C(=O)N[C@@H](CCC(=O)O)C(=O)N[C@@H](Cc1ccccc1)C(=O)N[C@@H](CC(C)C)C(N)=O)C(C)C
B11: [Aib8,Glu23,Val25,Glu34,Lys35,Val36,Lys37]-GLP-1-(7-37)-peptidyl-Glu-Lys amide (peptide)
peptide: H[Aib]EGTFTSDVSSYLEGEAVKEFIAWLVEKVKEK-NH2
modifications: N-terminus assumed
SMILES: CC[C@H](C)[C@H](NC(=O)[C@H](Cc1ccccc1)NC(=O)[C@H](CCC(=O)O)NC(=O)[C@H](CCCCN)NC(=O)[C@@H](NC(=O)[C@H](C)NC(=O)[C@H](CCC(=O)O)NC(=O)CNC(=O)[C@H](CCC(=O)O)NC(=O)[C@H](CC(C)C)NC(=O)[C@H](Cc1ccc(O)cc1)NC(=O)[C@H](CO)NC(=O)[C@H](CO)NC(=O)[C@@H](NC(=O)[C@H](CC(=O)O)NC(=O)[C@H](CO)NC(=O)[C@@H](NC(=O)[C@H](Cc1ccccc1)NC(=O)[C@@H](NC(=O)CNC(=O)[C@H](CCC(=O)O)NC(=O)C(C)(C)NC(=O)[C@@H](N)Cc1c[nH]cn1)[C@@H](C)O)[C@@H](C)O)C(C)C)C(C)C)C(=O)N[C@@H](C)C(=O)N[C@@H](Cc1c[nH]c2ccccc12)C(=O)N[C@@H](CC(C)C)C(=O)N[C@H](C(=O)N[C@@H](CCC(=O)O)C(=O)N[C@@H](CCCCN)C(=O)N[C@H](C(=O)N[C@@H](CCCCN)C(=O)N[C@@H](CCC(=O)O)C(=O)N[C@@H](CCCCN)C(N)=O)C(C)C)C(C)C
B12: [Glu34,Lys35,Val36,Lys37]-GLP-1-(7-37)-peptidyl-Glu-His-Leu amide (peptide)
peptide: HAEGTFTSDVSSYLEGQAAKEFIAWLVEKVKEHL-NH2

Target: human GLP-1 receptor (human, UniProt P43220)
Experiment: cell-based or functional assay

Binder	CRE luciferase EC50, 0% HSA [nM]	CRE luciferase EC50, 1% HSA [nM]
B1	0.161	0.074
B2	0.439	0.11
B3	0.116	0.023
B4	0.114	0.028
B5	5.42	1.16
B6	0.163	0.143
B7	0.702	0.112
B8	0.3	0.076
B9	0.601	0.229
B10	7.53	0.936
B11	0.043	0.014
B12	0.04	0.01
